# Test results as given in the supplement of paper PMC9112550, “Optimization of the antimicrobial peptide Bac7 by deep mutational scanning” (BMC Biology, 2022).
# Tested on: Escherichia coli TOP10
# Test: shrunken log2 fold change of peptide-encoding DNA abundance (4.5 h post-induction vs induction); higher = less antimicrobial activity (less host growth inhibition)
# Details: time post-induction: 4.5 h; library: site-saturation at positions 5, 18, 19, 20
# 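Note: peptides expressed intracellularly from a pBAD plasmid library in pooled LB shake-flask culture, induced with 0.3% L-arabinose, DNA abundance read by NGS, three biological replicates, DESeq2 with apeglm shrinkage.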
row,Sequence,shrunken log2 fold change
1,RRIRYRPPRLPRPRPRPRAHPRP,-0.121
2,RRIRERPPRLPRPRPRPNRDPRP,-0.192
3,RRIRHRPPRLPRPRPRPWYKPRP,-1.2
4,RRIRCRPPRLPRPRPRPMLEPRP,0.293
5,RRIRQRPPRLPRPRPRPAAWPRP,0.245
6,RRIRKRPPRLPRPRPRPFNIPRP,0.186
7,RRIRVRPPRLPRPRPRPTLWPRP,0.259
8,RRIRPRPPRLPRPRPRPSEEPRP,0.591
9,RRIRSRPPRLPRPRPRPIPEPRP,0.208
10,RRIRGRPPRLPRPRPRPAFQPRP,0.202
11,RRIRHRPPRLPRPRPRPIIRPRP,-0.507
12,RRIRARPPRLPRPRPRPDIHPRP,0.145
13,RRIRYRPPRLPRPRPRPLTNPRP,-0.206
14,RRIRMRPPRLPRPRPRPSYSPRP,-0.157
15,RRIRARPPRLPRPRPRPYRAPRP,-0.141
16,RRIRYRPPRLPRPRPRPSAMPRP,-0.0964
17,RRIRCRPPRLPRPRPRPECHPRP,0.0568
18,RRIRWRPPRLPRPRPRPFPQPRP,0.0229
19,RRIRWRPPRLPRPRPRPAMRPRP,1.1
20,RRIRRRPPRLPRPRPRPYGAPRP,-0.171
21,RRIRERPPRLPRPRPRPTPDPRP,0.116
22,RRIRWRPPRLPRPRPRPPVKPRP,0.644
23,RRIRCRPPRLPRPRPRPWMMPRP,-0.0394
24,RRIRLRPPRLPRPRPRPTMSPRP,-0.226
25,RRIRERPPRLPRPRPRPWAYPRP,-0.552

row,Sequence,shrunken log2 fold change
1,RRIRYRPPRLPRPRPRPTFMPRP,-0.0549
2,RRIRYRPPRLPRPRPRPCSMPRP,-0.0147
3,RRIRYRPPRLPRPRPRPICYPRP,-0.691
4,RRIRMRPPRLPRPRPRPKNQPRP,0.618
5,RRIRYRPPRLPRPRPRPNRVPRP,-0.172
6,RRIRNRPPRLPRPRPRPSVKPRP,-0.195
7,RRIRDRPPRLPRPRPRPITHPRP,-0.305
8,RRIRQRPPRLPRPRPRPAFTPRP,-0.00944
9,RRIRRRPPRLPRPRPRPITTPRP,0.032
10,RRIRARPPRLPRPRPRPCNKPRP,-0.43
11,RRIRQRPPRLPRPRPRPLNFPRP,-0.233
12,RRIRKRPPRLPRPRPRPIRTPRP,0.416
13,RRIRERPPRLPRPRPRPKTKPRP,-0.00738
14,RRIRIRPPRLPRPRPRPKISPRP,-0.3
15,RRIRNRPPRLPRPRPRPDNWPRP,-0.532
16,RRIRTRPPRLPRPRPRPNYRPRP,-0.0168
17,RRIRYRPPRLPRPRPRPICGPRP,-0.359
18,RRIRTRPPRLPRPRPRPALLPRP,0.226
19,RRIRVRPPRLPRPRPRPNKTPRP,0.172
20,RRIRKRPPRLPRPRPRPMGHPRP,0.000751
21,RRIRMRPPRLPRPRPRPCQMPRP,0.00911
22,RRIRTRPPRLPRPRPRPAWMPRP,0.307
23,RRIRMRPPRLPRPRPRPIYEPRP,-0.0231
24,RRIRVRPPRLPRPRPRPCMAPRP,-0.276
25,RRIRIRPPRLPRPRPRPPTMPRP,-0.0339

row,Sequence,shrunken log2 fold change
1,RRIRHRPPRLPRPRPRPIEPPRP,-0.133
2,RRIRHRPPRLPRPRPRPLYIPRP,-0.777
3,RRIRDRPPRLPRPRPRPQYLPRP,-0.248
4,RRIRFRPPRLPRPRPRPKNFPRP,0.0482
5,RRIRIRPPRLPRPRPRPVSAPRP,0.0887
6,RRIRDRPPRLPRPRPRPVDWPRP,0.812
7,RRIRARPPRLPRPRPRPDFYPRP,0.0576
8,RRIRYRPPRLPRPRPRPALCPRP,-0.0404
9,RRIRFRPPRLPRPRPRPEPSPRP,0.378
10,RRIRNRPPRLPRPRPRPLKWPRP,0.0542
11,RRIRKRPPRLPRPRPRPGGTPRP,0.504
12,RRIRGRPPRLPRPRPRPWGVPRP,0.287
13,RRIRIRPPRLPRPRPRPRKLPRP,-0.529
14,RRIRYRPPRLPRPRPRPSTDPRP,-0.011
15,RRIRSRPPRLPRPRPRPPSIPRP,0.2
16,RRIRSRPPRLPRPRPRPCMYPRP,-0.0328
17,RRIRVRPPRLPRPRPRPEECPRP,0.0155
18,RRIRMRPPRLPRPRPRPSTMPRP,-0.283
19,RRIRPRPPRLPRPRPRPVTNPRP,-0.299
20,RRIRERPPRLPRPRPRPMIEPRP,-0.184
21,RRIRDRPPRLPRPRPRPDRLPRP,0.0401
22,RRIRLRPPRLPRPRPRPPLDPRP,0.436
23,RRIRIRPPRLPRPRPRPSCAPRP,-0.249
24,RRIRMRPPRLPRPRPRPINIPRP,-0.0393
25,RRIRGRPPRLPRPRPRPIGFPRP,0.061

row,Sequence,shrunken log2 fold change
1,RRIRVRPPRLPRPRPRPGETPRP,-0.238
2,RRIRMRPPRLPRPRPRPIEQPRP,0.0161
3,RRIRYRPPRLPRPRPRPEMKPRP,0.206
4,RRIRCRPPRLPRPRPRPNWMPRP,-0.805
5,RRIRTRPPRLPRPRPRPLKAPRP,0.0363
6,RRIRDRPPRLPRPRPRPYCSPRP,-0.335
7,RRIRRRPPRLPRPRPRPSYIPRP,-0.416
8,RRIRPRPPRLPRPRPRPKVEPRP,0.00158
9,RRIRCRPPRLPRPRPRPHWRPRP,0.382
10,RRIRIRPPRLPRPRPRPKYAPRP,-0.118
11,RRIRNRPPRLPRPRPRPTSNPRP,-0.615
12,RRIRYRPPRLPRPRPRPPNPPRP,-0.145
13,RRIRERPPRLPRPRPRPHSLPRP,-0.0176
14,RRIRNRPPRLPRPRPRPECRPRP,0.263
15,RRIRPRPPRLPRPRPRPHRWPRP,0.25
16,RRIRFRPPRLPRPRPRPVSMPRP,0.174
17,RRIRCRPPRLPRPRPRPMRWPRP,0.325
18,RRIRKRPPRLPRPRPRPDVPPRP,0.501
19,RRIRMRPPRLPRPRPRPNYIPRP,-0.492
20,RRIRARPPRLPRPRPRPMVDPRP,0.299
21,RRIRERPPRLPRPRPRPTAWPRP,0.378
22,RRIRLRPPRLPRPRPRPISGPRP,-0.462
23,RRIRHRPPRLPRPRPRPLPHPRP,-0.162
24,RRIRCRPPRLPRPRPRPSWMPRP,0.326
25,RRIRQRPPRLPRPRPRPYSGPRP,-0.126

row,Sequence,shrunken log2 fold change
1,RRIRVRPPRLPRPRPRPGHRPRP,-0.0978
2,RRIRERPPRLPRPRPRPDVYPRP,-0.301
3,RRIRARPPRLPRPRPRPHVDPRP,0.142
4,RRIRDRPPRLPRPRPRPKINPRP,-0.389
5,RRIRIRPPRLPRPRPRPWCLPRP,-1.11
6,RRIRYRPPRLPRPRPRPFVHPRP,-1.49
7,RRIRHRPPRLPRPRPRPPNCPRP,-0.19
8,RRIRGRPPRLPRPRPRPCVNPRP,0.0252
9,RRIRVRPPRLPRPRPRPSLHPRP,-0.415
10,RRIRFRPPRLPRPRPRPSLMPRP,-0.6
11,RRIRFRPPRLPRPRPRPVLAPRP,0.239
12,RRIRTRPPRLPRPRPRPMFLPRP,-0.593
13,RRIRKRPPRLPRPRPRPDFIPRP,-0.209
14,RRIRGRPPRLPRPRPRPEDAPRP,1.65
15,RRIRLRPPRLPRPRPRPIICPRP,0.0147
16,RRIRCRPPRLPRPRPRPPNAPRP,0.262
17,RRIRLRPPRLPRPRPRPWQPPRP,-0.0454
18,RRIRTRPPRLPRPRPRPPHFPRP,0.7
19,RRIRTRPPRLPRPRPRPILHPRP,-0.324
20,RRIRLRPPRLPRPRPRPSPDPRP,0.164
21,RRIRHRPPRLPRPRPRPNPNPRP,-0.202
22,RRIRGRPPRLPRPRPRPVQPPRP,0.95
23,RRIRHRPPRLPRPRPRPLPYPRP,-0.137
24,RRIRTRPPRLPRPRPRPDWFPRP,-0.112
25,RRIRERPPRLPRPRPRPWHAPRP,0.421

row,Sequence,shrunken log2 fold change
1,RRIRSRPPRLPRPRPRPPFMPRP,-0.0803
2,RRIRVRPPRLPRPRPRPTRQPRP,0.0865
3,RRIRMRPPRLPRPRPRPFAGPRP,-0.0745
4,RRIRQRPPRLPRPRPRPFVRPRP,-0.0842
5,RRIRVRPPRLPRPRPRPMPCPRP,0.118
6,RRIRKRPPRLPRPRPRPDCAPRP,1.1
7,RRIRYRPPRLPRPRPRPGPLPRP,-0.151
8,RRIRHRPPRLPRPRPRPCRMPRP,0.0591
9,RRIRDRPPRLPRPRPRPFGFPRP,-0.0238
10,RRIRHRPPRLPRPRPRPISVPRP,-0.00149
11,RRIRYRPPRLPRPRPRPDKVPRP,-0.102
12,RRIRARPPRLPRPRPRPYSEPRP,-0.339
13,RRIRSRPPRLPRPRPRPGTWPRP,0.358
14,RRIRSRPPRLPRPRPRPHEEPRP,0.0919
15,RRIRLRPPRLPRPRPRPWKSPRP,0.0457
16,RRIRNRPPRLPRPRPRPDIPPRP,-0.588
17,RRIRKRPPRLPRPRPRPYPCPRP,-0.034
18,RRIRDRPPRLPRPRPRPIRLPRP,0.015
19,RRIRQRPPRLPRPRPRPWELPRP,0.0585
20,RRIRLRPPRLPRPRPRPPFDPRP,0.312
21,RRIRPRPPRLPRPRPRPKMVPRP,0.0319
22,RRIRIRPPRLPRPRPRPIFGPRP,-0.164
23,RRIRLRPPRLPRPRPRPTQPPRP,0.634
24,RRIRNRPPRLPRPRPRPMAAPRP,0.582
25,RRIRQRPPRLPRPRPRPFCQPRP,0.53
